# Data: the supplement of paper PMC9112550, “Optimization of the antimicrobial peptide Bac7 by deep mutational scanning” (BMC Biology, 2022)
# Tested on: Escherichia coli TOP10
# Test: shrunken log2 fold change of peptide-encoding DNA abundance (4.5 h post-induction vs induction); higher = less antimicrobial activity (less host growth inhibition)
# Conditions: time post-induction: 4.5 h; library: site-saturation at positions 5, 18, 19, 20
# 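Also: peptides expressed intracellularly from a pBAD plasmid library in pooled LB shake-flask culture, induced with 0.3% L-arabinose, DNA abundance read by NGS, three biological replicates, DESeq2 with apeglm shrinkage.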
row,Sequence,shrunken log2 fold change
1,RRIRKRPPRLPRPRPRPGARPRP,0.962
2,RRIRWRPPRLPRPRPRPRCFPRP,0.398
3,RRIRIRPPRLPRPRPRPAMYPRP,-0.733
4,RRIRFRPPRLPRPRPRPYREPRP,-0.468
5,RRIRERPPRLPRPRPRPFNRPRP,-0.0972
6,RRIRMRPPRLPRPRPRPETQPRP,0.359
7,RRIRVRPPRLPRPRPRPPPAPRP,1.07
8,RRIRFRPPRLPRPRPRPCKAPRP,-0.0248
9,RRIRVRPPRLPRPRPRPAEAPRP,0.729
10,RRIRTRPPRLPRPRPRPNKRPRP,-0.265
11,RRIRMRPPRLPRPRPRPQARPRP,0.575
12,RRIRMRPPRLPRPRPRPSRCPRP,0.274
13,RRIRARPPRLPRPRPRPKPWPRP,0.823
14,RRIRIRPPRLPRPRPRPEINPRP,-0.993
15,RRIRSRPPRLPRPRPRPGCDPRP,0.332
16,RRIRIRPPRLPRPRPRPLALPRP,-0.138
17,RRIRQRPPRLPRPRPRPDNWPRP,-0.117
18,RRIRMRPPRLPRPRPRPCFKPRP,0.145
19,RRIRCRPPRLPRPRPRPKDFPRP,-0.0611
20,RRIRMRPPRLPRPRPRPDDVPRP,-0.00192
21,RRIRKRPPRLPRPRPRPQPNPRP,0.159
22,RRIRCRPPRLPRPRPRPIVPPRP,-0.298

row,Sequence,shrunken log2 fold change
1,RRIRTRPPRLPRPRPRPTLTPRP,0.0461
2,RRIRARPPRLPRPRPRPTKHPRP,0.217
3,RRIRARPPRLPRPRPRPRKMPRP,0.521
4,RRIRLRPPRLPRPRPRPYHAPRP,-0.186
5,RRIRLRPPRLPRPRPRPKAQPRP,-0.00354
6,RRIRLRPPRLPRPRPRPDSAPRP,0.0605
7,RRIRGRPPRLPRPRPRPKNWPRP,0.466
8,RRIRTRPPRLPRPRPRPPKGPRP,0.107
9,RRIRPRPPRLPRPRPRPMLNPRP,-0.164
10,RRIRNRPPRLPRPRPRPMYKPRP,0.0573
11,RRIRCRPPRLPRPRPRPWHTPRP,-0.261
12,RRIRKRPPRLPRPRPRPFDYPRP,-0.121
13,RRIRMRPPRLPRPRPRPEIGPRP,2.62
14,RRIRIRPPRLPRPRPRPLQVPRP,-2
15,RRIRPRPPRLPRPRPRPTVIPRP,-0.28
16,RRIRPRPPRLPRPRPRPENFPRP,0.0102
17,RRIRKRPPRLPRPRPRPHCPPRP,-0.00424
18,RRIRKRPPRLPRPRPRPTTYPRP,0.00371
19,RRIRKRPPRLPRPRPRPKARPRP,0.0808
20,RRIRARPPRLPRPRPRPHDNPRP,0.00651
21,RRIRTRPPRLPRPRPRPNPYPRP,-0.121
22,RRIRRRPPRLPRPRPRPCGVPRP,0.0719

row,Sequence,shrunken log2 fold change
1,RRIRHRPPRLPRPRPRPARLPRP,0.568
2,RRIRLRPPRLPRPRPRPCFIPRP,0.554
3,RRIRMRPPRLPRPRPRPRPLPRP,1.17
4,RRIRRRPPRLPRPRPRPMCVPRP,-0.0364
5,RRIRMRPPRLPRPRPRPESMPRP,2.6
6,RRIRRRPPRLPRPRPRPDAYPRP,0.249
7,RRIRTRPPRLPRPRPRPPQFPRP,0.11
8,RRIRFRPPRLPRPRPRPNLHPRP,-0.235
9,RRIRERPPRLPRPRPRPIWFPRP,0.0591
10,RRIRPRPPRLPRPRPRPYTLPRP,-0.54
11,RRIRFRPPRLPRPRPRPKEVPRP,0.0322
12,RRIRPRPPRLPRPRPRPWGVPRP,-0.128
13,RRIRNRPPRLPRPRPRPHKSPRP,-0.298
14,RRIRMRPPRLPRPRPRPKTSPRP,0.641
15,RRIRMRPPRLPRPRPRPIQMPRP,-0.0558
16,RRIRERPPRLPRPRPRPGQRPRP,-0.0192
17,RRIRIRPPRLPRPRPRPYVQPRP,-0.311
18,RRIRIRPPRLPRPRPRPVCGPRP,-0.0405
19,RRIRQRPPRLPRPRPRPFLNPRP,-0.118
20,RRIRPRPPRLPRPRPRPLICPRP,-0.164
21,RRIRYRPPRLPRPRPRPWTKPRP,-0.319
22,RRIRNRPPRLPRPRPRPGVNPRP,0.0306

row,Sequence,shrunken log2 fold change
1,RRIRLRPPRLPRPRPRPEIEPRP,-0.0912
2,RRIRPRPPRLPRPRPRPTHVPRP,0.317
3,RRIRRRPPRLPRPRPRPLIIPRP,-0.376
4,RRIRPRPPRLPRPRPRPEMKPRP,-0.0423
5,RRIRNRPPRLPRPRPRPSECPRP,-0.272
6,RRIRKRPPRLPRPRPRPHHLPRP,-0.232
7,RRIRPRPPRLPRPRPRPLWAPRP,0.343
8,RRIRVRPPRLPRPRPRPARHPRP,0.287
9,RRIRKRPPRLPRPRPRPRFTPRP,0.158
10,RRIRERPPRLPRPRPRPDPLPRP,0.00979
11,RRIRLRPPRLPRPRPRPMIHPRP,-0.186
12,RRIRPRPPRLPRPRPRPQYGPRP,-0.725
13,RRIRKRPPRLPRPRPRPKEYPRP,0.191
14,RRIRWRPPRLPRPRPRPMDCPRP,-0.0839
15,RRIRIRPPRLPRPRPRPCKFPRP,-0.549
16,RRIRIRPPRLPRPRPRPDIKPRP,-0.576
17,RRIRTRPPRLPRPRPRPNGTPRP,-0.402
18,RRIRKRPPRLPRPRPRPYMFPRP,-0.109
19,RRIRWRPPRLPRPRPRPSISPRP,-0.283
20,RRIRGRPPRLPRPRPRPAQLPRP,0.435
21,RRIRDRPPRLPRPRPRPRCLPRP,-0.0519
22,RRIRQRPPRLPRPRPRPHVQPRP,-0.46

row,Sequence,shrunken log2 fold change
1,RRIRVRPPRLPRPRPRPLHPPRP,0.149
2,RRIRHRPPRLPRPRPRPIELPRP,-0.0301
3,RRIRNRPPRLPRPRPRPNLTPRP,-0.335
4,RRIRWRPPRLPRPRPRPTTTPRP,0.567
5,RRIRSRPPRLPRPRPRPLGTPRP,-0.216
6,RRIRNRPPRLPRPRPRPVCTPRP,-0.157
7,RRIRQRPPRLPRPRPRPNMLPRP,-0.285
8,RRIRHRPPRLPRPRPRPTDHPRP,-0.487
9,RRIRGRPPRLPRPRPRPMCKPRP,0.886
10,RRIRKRPPRLPRPRPRPLRVPRP,1.04
11,RRIRERPPRLPRPRPRPHPIPRP,-0.0808
12,RRIRPRPPRLPRPRPRPMPMPRP,-0.301
13,RRIRCRPPRLPRPRPRPMNHPRP,-0.658
14,RRIRARPPRLPRPRPRPKIGPRP,0.458
15,RRIRGRPPRLPRPRPRPTCGPRP,0.915
16,RRIRGRPPRLPRPRPRPVSIPRP,0.00516
17,RRIRWRPPRLPRPRPRPETYPRP,-0.231
18,RRIRKRPPRLPRPRPRPLANPRP,0.029
19,RRIRFRPPRLPRPRPRPFCLPRP,-0.467
20,RRIRWRPPRLPRPRPRPALCPRP,0.331
21,RRIRGRPPRLPRPRPRPETVPRP,0.431
